Where no end group is shown, it is not given here.
Experiments:
B11-CPMTEEFKN (cyclic) = target: T1, B11-CPMTEEFKN (cyclic) (human, also: biotinylated in screening assay, position not given here); assay: peptide specificity; bead-based FMAT screen on biotinylated peptide
T1 construct: Human Nav1.7 peptide; also called Nav1.7 peptide B11
T1 peptide: cyclo(CPMTEEFKN)
Method: (§1) SLAM was performed using substantially the methods described in Tickle et al. 2009 (JALA, Vol. 14, number 5, p303-307). Briefly, SLAM cultures were set up using rabbit splenocytes or PBMC and supernatants were first screened for their ability to bind biotinylated peptide in a bead-based assay in the FMAT. […] Positives from this screen were then put through a negative screen to identify non-specific antibodies.

[1] = target: T2, B11.7 Cyclo[biotinyl-PEG-cysPMTEEFKN] (not fully specified; cyclic; biotinyl-PEG on the cysteine); assay: peptide binding ELISA (FIG. 3K legend)
T2 construct: also called B11.7 peptide; Nav 1.7 peptide
T2 peptide: CPMTEEFKN
Method: (§2) Nunc 96 well plates were coated overnight at 4° C. in 5 ug/ml Streptavidin (Jackson 016-000-114) 100 ul/well in carbonate coating buffer. Plates were washed four times in PBS/tween and 200 ul/well of block (1% BSA in PBS) was added for 1 hour at RT. Plates were washed four times in PBS/tween and 100 ul/well of biotinylated peptide at 5 ug/ml was added for 1 hour at RT. Plates were washed four times in PBS/tween and 100 ul/well of antibody added (starting at 10 ug/ml diluting in block in half logs down the plate) for 1 hour at RT. Plates were washed four times in PBS/tween and […] goat anti rabbit Fc HRP (Jackson 111-036-046) added for 1 hour at RT. Plates were washed four times in PBS/tween and 100 ul/well TMB (3,3′,5,5′ Tetramethylbenzidine) solution added. 50 ul/well of NaF was added to stop reaction and absorbance read at 630 nm.

[2] = target: T3, B11.9 Cyclo[biotinyl-PEG-cysEHHKMEASFEK] (not fully specified; cyclic; biotinyl-PEG on the cysteine); assay: peptide binding ELISA, biotinylated peptide on streptavidin
T3 construct: also called Nav 1.9 E1 peptide
T3 peptide: CEHHKMEASFEK
Method: as §2

[3] = target: T4, B11.5 Cyclo[biotinyl-PEG-cysEHYNMTSEFEE] (not fully specified; cyclic; biotinyl-PEG on the cysteine); assay: as above
T4 construct: also called Nav 1.5 E1 peptide
T4 peptide: CEHYNMTSEFEE
Method: as §2

[4] = target: T5, B11.1 Cyclo[biotinyl-PEG-cysEHYPMTDHFNN] (not fully specified (N-terminus, bridges); printed as Cyclo[biotinyl-PEG-cysEHYPMTDHFNN]; also: biotinyl-PEG on the cysteine); assay: as above
T5 construct: also called Nav 1.1 E1 peptide
T5 peptide: CEHYPMTDHFNN
Method: as §2

[5] = target: T6, B11.6 Cyclo[biotinyl-PEG-cysEHHPMTPQFEH] (not fully specified; cyclic; biotinyl-PEG on the cysteine); assay: as above
T6 construct: also called Nav 1.6 E1 peptide
T6 peptide: CEHHPMTPQFEH
Method: as §2

[6] = target: T7, B11.4 Cyclo[biotinyl-PEG-cysEHYPMTEHFDN] (not fully specified (N-terminus, bridges); printed as Cyclo[biotinyl-PEG-cysEHYPMTEHFDN]; also: biotinyl-PEG on the cysteine); assay: as above
T7 construct: also called Nav 1.4 E1 peptide
T7 peptide: CEHYPMTEHFDN
Method: as §2

[7] = target: T8, B11.8 Cyclo[biotinyl-PEG-cysEHHGMSPTFEA] (not fully specified; cyclic; biotinyl-PEG on the cysteine); assay: as above
T8 construct: also called Nav 1.8 E1 peptide
T8 peptide: CEHHGMSPTFEA
Method: as §2

[8] = target: T9, B11.2/3 Cyclo[biotinyl-PEG-cysEHYPMTEQFSS] (not fully specified (N-terminus, bridges); printed as Cyclo[biotinyl-PEG-cysEHYPMTEQFSS]; also: biotinyl-PEG on the cysteine); assay: as above
T9 construct: also called Nav 1.2 and 1.3 E1 peptide
T9 peptide: CEHYPMTEQFSS
Method: as §2

[9] = target: human Nav1.7 channel (type IX voltage-gated sodium channel alpha subunit) (human, UniProt Q15858 1-1988); assay: cell-based or functional assay
[10] = target: T10, A32-CTLESIMNTLESEEDFRKY (cyclic) (human, also: biotinylated in screening assay, position not given here); assay: peptide specificity; bead-based FMAT screen on biotinylated peptide
T10 construct: Human Nav1.7 peptide; also called Nav1.7 peptide A32
T10 peptide: cyclo(CTLESIMNTLESEEDFRKY)
Method: as §1

[11] = target: T2, B11.7 Cyclo[biotinyl-PEG-cysPMTEEFKN]; assay: peptide binding ELISA (FIG. 3J legend)
Method: as §2

| Binder | binding result (B11-CPMTEEFKN (cyclic)) | binding result [1] | binding result [2] | binding result [3] | binding result [4] | binding result [5] | binding result [6] | binding result [7] | binding result [8] | Nav1.7 inhibition (%) at 25 µg/ml, automated patch clamp, HEK cells [9] [%] | binding result [10] | binding result [11] |
| --- | --- | --- | --- | --- | --- | --- | --- | --- | --- | --- | --- | --- |
| CA167_01080 (antibody, rabbit IgG1, V domains shown, Rabbit monoclonal from rabbit 3824) VH: QSLEESGGRLVTPETPLTLTCTASGIDLSKWPMTWVRQAPGKGLEWIGIIGRSGSTNYASWAKGRFTISKTSTTVDLKMTSPTTEDTATYFCARGGSYYDLWGQGTLVTVS VL: AQVLTQTASPVSAAVGNTVTITCQSSQSVWKNNDLSWYQQKLGQPPKLLIYYASTLASGVSSRFKASGSGTQFTLTISDVQCDDAGTYYCVGSYDCSSADCNAFGGGTKVVVK | binds | binds | no binding (tested: antibody starting at 10 ug/ml) | no binding (tested: antibody starting at 10 ug/ml) | no binding (tested: antibody starting at 10 ug/ml) | no binding (tested: antibody starting at 10 ug/ml) | no binding (tested: antibody starting at 10 ug/ml) | no binding (tested: antibody starting at 10 ug/ml) | no binding (tested: antibody starting at 10 ug/ml) | 46 | – | – |
| CA167_00932 (antibody, rabbit IgG1, V domains shown, Rabbit monoclonal from rabbit 3822; also called antibody 932) VH: QSLEESGGRLVTPGTPLTLTCTVSGFSLSRYWMSWVRQAPGKGLEWIGNIGGGSGSTLYAPWAKGRSTISKTSTTVDLKITSPTTEDTATYFCGRYVKNGGGYRLDLWGPGTLVTVS VL: AAVLTQTPSSVSAAVGGTVTIKCQSSQSVYNNNEFSWYQQKPGQPPKLLIYDASKLASGVPSRFSGSGSGTQFTLTISGVQCDDVATYYCLGGYNDDTNRWAFGGGTEVVVE | – | – | – | – | – | – | – | – | – | 27 | binds | – |
| CA167_00983 (antibody, rabbit IgG1, V domains shown, Rabbit monoclonal from rabbit 3824) VH: QSVEESGGRLVTPGTPLTLTCTVSGFSLSNYAMSWVRQAPGKGLEWIGIIGKSGSTAYASWAKGRFTISRTSTTVDLEITSPTTEDTATYFCVRFVLLWGPGTLVTVS VL: AQVLTQTASPVSAAVGGTVTINCQSSQSVYKNNDLAWYQQKPGQPPKLLIYYASTLASGVSSRFKGSGSGTEFTLTISDAQCDDAATYYCLGSYDCSSADCNAFGGGTKVVVK | binds | – | no binding (tested: antibody starting at 10 ug/ml) | no binding (tested: antibody starting at 10 ug/ml) | no binding (tested: antibody starting at 10 ug/ml) | no binding (tested: antibody starting at 10 ug/ml) | no binding (tested: antibody starting at 10 ug/ml) | no binding (tested: antibody starting at 10 ug/ml) | no binding (tested: antibody starting at 10 ug/ml) | 41 | – | binds |
